From patent publication US20230133141A1 (HONG KONG POLYTECHNIC UNIVERSITY, published 2023) come the findings set out here.

Non-standard residues stand in square brackets, D forms with d.

Assay [1] has as its target T1, full-length ITGA2 (UniProt P17301 30-1181, limits assumed).
T1 sequence (looked up): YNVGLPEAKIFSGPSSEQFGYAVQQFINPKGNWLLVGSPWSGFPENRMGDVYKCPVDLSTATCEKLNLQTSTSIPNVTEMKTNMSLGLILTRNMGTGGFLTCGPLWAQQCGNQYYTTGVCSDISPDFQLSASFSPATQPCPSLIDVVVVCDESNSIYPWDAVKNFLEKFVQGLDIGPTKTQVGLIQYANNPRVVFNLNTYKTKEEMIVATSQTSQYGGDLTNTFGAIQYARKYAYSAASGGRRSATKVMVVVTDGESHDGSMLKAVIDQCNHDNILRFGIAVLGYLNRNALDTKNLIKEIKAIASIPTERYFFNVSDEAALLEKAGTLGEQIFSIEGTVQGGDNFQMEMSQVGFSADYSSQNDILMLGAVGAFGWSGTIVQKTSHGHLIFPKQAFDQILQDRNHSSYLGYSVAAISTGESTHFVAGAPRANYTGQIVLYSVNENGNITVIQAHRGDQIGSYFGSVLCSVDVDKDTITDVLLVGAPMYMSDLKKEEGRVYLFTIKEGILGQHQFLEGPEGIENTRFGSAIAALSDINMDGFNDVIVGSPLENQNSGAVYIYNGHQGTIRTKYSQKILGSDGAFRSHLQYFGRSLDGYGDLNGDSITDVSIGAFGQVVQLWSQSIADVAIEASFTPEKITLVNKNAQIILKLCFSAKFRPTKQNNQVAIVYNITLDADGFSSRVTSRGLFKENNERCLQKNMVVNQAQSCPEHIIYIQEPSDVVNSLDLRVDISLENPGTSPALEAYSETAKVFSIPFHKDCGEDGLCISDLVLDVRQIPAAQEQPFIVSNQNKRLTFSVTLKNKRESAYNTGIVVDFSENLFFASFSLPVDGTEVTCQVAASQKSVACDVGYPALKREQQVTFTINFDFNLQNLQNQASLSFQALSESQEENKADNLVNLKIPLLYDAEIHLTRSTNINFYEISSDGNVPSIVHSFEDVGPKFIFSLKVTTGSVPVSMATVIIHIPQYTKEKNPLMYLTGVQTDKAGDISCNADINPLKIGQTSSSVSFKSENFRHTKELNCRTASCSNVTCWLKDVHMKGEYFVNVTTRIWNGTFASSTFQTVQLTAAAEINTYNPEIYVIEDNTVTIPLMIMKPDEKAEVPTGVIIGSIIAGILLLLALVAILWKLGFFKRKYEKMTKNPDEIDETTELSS
Description: cell-based or functional assay.

Assay [2] has as its target T2, KLGFFKR motif-deficient (dm) ITGA2 (UniProt P17301 30-1181).
T2 construct: whole, on cells; Deletion of the seven residues KLGFFKR; also called A2dm; motif-deficient ITGA2
T2 sequence (looked up): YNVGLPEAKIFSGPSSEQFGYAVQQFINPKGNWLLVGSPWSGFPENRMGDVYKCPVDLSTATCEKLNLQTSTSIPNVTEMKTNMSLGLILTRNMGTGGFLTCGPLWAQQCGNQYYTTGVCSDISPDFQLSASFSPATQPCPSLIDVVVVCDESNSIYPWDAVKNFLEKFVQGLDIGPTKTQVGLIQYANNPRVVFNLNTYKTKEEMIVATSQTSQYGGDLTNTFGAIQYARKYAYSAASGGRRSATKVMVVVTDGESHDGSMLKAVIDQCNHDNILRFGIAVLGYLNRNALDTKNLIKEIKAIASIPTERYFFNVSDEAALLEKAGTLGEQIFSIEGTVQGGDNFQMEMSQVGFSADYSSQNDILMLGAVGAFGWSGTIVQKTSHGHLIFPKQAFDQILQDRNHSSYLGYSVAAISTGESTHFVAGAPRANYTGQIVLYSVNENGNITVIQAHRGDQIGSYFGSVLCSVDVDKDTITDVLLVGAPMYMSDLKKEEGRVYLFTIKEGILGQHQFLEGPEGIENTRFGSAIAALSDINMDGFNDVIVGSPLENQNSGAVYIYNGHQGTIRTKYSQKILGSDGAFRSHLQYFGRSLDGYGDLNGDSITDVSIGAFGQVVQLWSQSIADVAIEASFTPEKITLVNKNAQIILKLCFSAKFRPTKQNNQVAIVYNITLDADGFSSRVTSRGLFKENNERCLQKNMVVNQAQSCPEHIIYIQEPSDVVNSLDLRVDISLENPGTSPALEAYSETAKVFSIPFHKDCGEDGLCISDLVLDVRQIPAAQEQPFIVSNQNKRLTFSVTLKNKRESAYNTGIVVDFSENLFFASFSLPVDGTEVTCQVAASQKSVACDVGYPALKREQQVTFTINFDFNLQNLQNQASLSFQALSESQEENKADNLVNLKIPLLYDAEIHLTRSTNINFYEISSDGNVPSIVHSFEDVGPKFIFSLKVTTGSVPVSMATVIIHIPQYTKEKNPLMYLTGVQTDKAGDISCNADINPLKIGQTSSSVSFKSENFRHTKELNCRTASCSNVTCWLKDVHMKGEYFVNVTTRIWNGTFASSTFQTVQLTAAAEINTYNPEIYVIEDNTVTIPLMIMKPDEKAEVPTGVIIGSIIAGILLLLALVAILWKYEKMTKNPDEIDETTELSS
Description: co-immunoprecipitation with anti-CRT antibody, Western blot.
Description: (§1) After incubation, agarose beads were centrifuged and washed by PBS. Immunoprecipitated proteins were collected by treating the beads with 0.2 M glycine and subjected to Western Blotting (WB) analysis.
(§2) Total protein was extracted with RIPA buffer supplied with protease inhibitor (Roche), resolved in 10% SDS-PAGE and transferred onto Immobilon-P PVDF membrane (Millipore). Membranes were blocked with 5% non-fat dry milk in Tris-buffered saline with 0.1% Tween (TBST) for 2 hours, then were incubated overnight with corresponding antibodies at 4° C., followed by incubation with horseradish peroxidase-conjugated goat anti-mouse IgG (Santa Cruz Biotechnology) or goat anti-rabbit IgG (Santa Cruz Biotechnology) as appropriate, for 2 hours at room temperature in TBST. Antibody binding was detected with Pierce ECL Western Blotting Substrate (Thermo Scientific) and images were visualized with Azure C600 imaging system (Azure Biosystems).

Assay [3] addresses T1, full-length ITGA2. In words: co-immunoprecipitation with anti-CRT antibody from cell lysate, Western blot.
Description: as §1, §2

Take Ac-[dR][dE][dP][dV][dC][dL][dC][dR]G[dI][dV][dW][dR][dQ][dV][dA][dP][dP][dF]G[dL][dE][dS][dR][dR][dR][dQ][dR][dR][dK][dK][dR]-NH2 (cysteine pairing not given here) [DRI-TAT-SP peptide (D-retro-inverso form of TAT-SP)]: in the assay with full-length ITGA2 [1], the “EC50 of reversing chemoresistance in BCSCs in the presence of DOX (MTS assay)” value came out at 2300 nM.

B1: calreticulin (CRT) (other, UniProt P27797 18-417, looked up)
chain: EPAVYFKEQFLDGDGWTSRWIESKHKSDFGKFVLSSGKFYGDEEKDKGLQTSQDARFYALSASFEPFSNKGQTLVVQFTVKHEQNIDCGGGYVKLFPNSLDQTDMHGDSEYNIMFGPDICGPGTKKVHVIFNYKGKNVLINKDIRCKDDEFTHLYTLIVRPDNTYEVKIDNSQVESGSLEDDWDFLPPKKIKDPDASKPEDWDERAKIDDPTDSKPEDWDKPEHIPDPDAKKPEDWDEEMDGEWEPPVIQNPEYKGEWKPRQIDNPDYKGTWIHPEIDNPEYSPDPSIYAYDNFGVLGLDLWQVKSGTIFDNFLITNDEAYAEEFGNETWGVTKAAEKQMKDKQDEEQRLKEEEEDKKRKEEEEAEDKEDDEDKDEDEEDEEDKEEDEEEDVPGQAKDEL
notes: Endogenous protein in cell lysate; pulled down with anti-CRT antibody
Consider B1, for which the values for the binding result (in assay [2]; in the assay with full-length ITGA2 [3]) were “no binding” and “binds”, respectively.
